The text below walks through data of patent US6613506B1, “Compositions and methods for inhibiting human immunodeficiency virus infection by down-regulating human cellular genes” (Subsidiary No. 3, Inc., priority 2000, dated 2003).

B1: CF-317: GSE, SEQ ID NO:17, antisense; human phosphatidylinositol 3-kinase gene (nucleic acid, listed as Homo sapiens)
antisense: CCAAGCTTCCTATCTTAAGCTGGGCGTTGATATCCAGGTCACAACTATAGATGTAGTGAAACTTCTCTGCTTCCCCCATCGCACCGTCTGCAAAGGTACCACC
B2: CF-311: GSE, SEQ ID NO:12, antisense; human protein tyrosine phosphatase gene (nucleic acid, listed as Homo sapiens)
antisense: GGGGGCTCTGTTTGGTGGTCTCTCTAGCTGCACTGGTCTATCAAGCTGTTGGCTGGTCTCTCTCTCTGGCTGGGGATC
B3: CF-545: GSE, SEQ ID NO:49, antisense; U-snRNP associated cyclophilin gene (nucleic acid, listed as Homo sapiens)
antisense: CTTCTTGGTGGTGTTCTTGAGTAAGATAATCTGGACTGGCCCCCGTCTTTGCTTCCCTGCCTGCTGCTGCCCCATTTGATCAAGAGACCATGGAAGTGTCAGAGATTCAGAATCCAAGATTGTCTTTAAGTTTTCAACTGTAAATAAAGTTTTTTTGTATGCGTAAAAAAAGCTCGTGCCT
B4: CF-302: GSE, SEQ ID NO:16, antisense; human CD44 gene (nucleic acid, listed as Homo sapiens)
antisense: GATCCCTGGGCGCGGGGCAGGGGCCGGCGGAGGACGGGACGAGGATGGCGGACCGAACCTGGCAGAGGCTGGG
B5: CF-531: GSE, SEQ ID NO:47, antisense; cell adhesion molecule L1 gene (nucleic acid, listed as Homo sapiens)
antisense: CTGGGTCCCCAAGGAGGGCCAGTGCAACTTCAGGTTCCATATCTTGTTCAAAGCCTTGGGAGAAGAGAAGGGTGGGGCTTCCCTTTCGC
modifications: chemistry not fully specified
notes: cell adhesion molecule L1 gene
B6: CF-210: GSE, SEQ ID NO:14, sense; herpesvirus-associated ubiquitin-specific protease gene (nucleic acid, listed as Homo sapiens)
sense: GCATTACAAAGAGTGTTCTATGAATTACAGCATAGTGATAAACCTGTAGGAACAAAAAAGTTAACAAAGTCATTTGGGTGGGAAACTTTAGATAGCTTCATGCAACATGATGTT
B7: CF-266: GSE, SEQ ID NO:15, antisense; human eIF4B gene (nucleic acid, listed as Homo sapiens)
antisense: GCCGTTCTTCTACTTCTCTTTCTCAAGCAGCAGTGTCAACAGGCTTTGCCCCTCCAAAGATAGAAGCAGCTCGAGTGGACTGGGAGGTACTAGCAGA
B8: CF-004: GSE, SEQ ID NO:7, sense; human 2-oxoglutarate dehydrogenase gene (nucleic acid, listed as Homo sapiens)
sense: GCGCAAAGCACGCGACATGGTGGGGCAGGTGGCCATCACAAGGATTGAGCAGCTGTCGCCATTCCCCTTTGACCTCCTGCTGAAGGAGGTGCAGAAGTACCCCAA
B9: CF-286: GSE, SEQ ID NO:18, sense; human elongation factor-1α gene (nucleic acid, listed as Homo sapiens)
sense: CAGTTGGGGTGGGTGTCATCAAAGCAGTGGACAAGAAGGCTGCTGGAGCTGGCAAGGTCACCAAGTCTGCCCAGAAAGCTCAGAAGGCTAAATGAATATTATCCCTAATACCTGCCACCCCACTCTTAATCAGTGGTGGAAGAAC
B10: CF-529: GSE, SEQ ID NO:45, antisense; importin beta subunit gene (nucleic acid, listed as Homo sapiens)
antisense: GGAGTGTGCACGGATGCTGAATGTTTGGGAATGAGAGGATGAGTGAGTGAGGCTTGAAAACACACCACATTGAAAATCCTGCCACAGCAGCAGCCGCAGCCGCCAACAGCAGCGCTGTTAGTGAGCTAAGTAAGC
B11: CF-273: GSE, SEQ ID NO:11, sense; eukaryotic translation initiation factor 3 gene (nucleic acid, listed as Homo sapiens)
sense: GCTCGTCAGTGTCCACCCCTCCTCGCAACTCCAGGCGCTCCTTTTTCTGCTCCATATAGAGCTCCTGGGCCATTTTCCGGTACTTCCGGAAATCTTCCATCATGGTGCGCCTTC
B12: CF-204: GSE, SEQ ID NO:9, antisense; human calnexin gene (nucleic acid, listed as Homo sapiens)
antisense: GGTTGTCAATCACAGGTCGCCAGGAGACACCACATCCAGGAGCTGACTCACATCTAGGGTTGGCAATCTGAGGAGCCTCCCATTCTCCATCCATGTCTTCATCCCAA
B13: CF-280: GSE, SEQ ID NO:20; portion of an unknown human cellular gene (nucleic acid, listed as Homo sapiens)
DNA: GTGCCGTATGAATATACAAAATAATGGCATCAGGGATCCCTGTGCTCATTCACATAGCTAGGGACAACAGGATTTCATCTCCAGGAAACTCAGTAGTATACTTTTGTGACTTCTCTCTTTAAGCACCAAAGCATACTTTCAGGGAAAAACAAAAAAGAGATTAAAAATGTAAAGAATTCTTTCATGCTGCTTGGAGAGGTGAGGGAAGGTAGCCCACTGAAAGTGACAGAGAA
B14: CF-313: GSE, SEQ ID NO:13, sense; human protein tyrosine phosphatase gene (nucleic acid, listed as Homo sapiens)
sense: CATTTTGTTACATAAGGATGACTTTTTTATACAATGGAATAAATTATGGCATTTCTATTGAAATTTCAACGCTTTTGTTTCTTTGGCAACCACAC

The subject of the data set is HIV-1IIIB. In words: Selection of GSEs from HeLa cell library using productive infection of CEM-ss cells. The data set is classed as cell-based. On the procedure: Additionally, a normalized RFE library made from HeLa cells was transferred into CEM-ss cells and the neo resistant population was infected with TCID50 of 3000/10^6 cells of HIV-1IIIB. This RFE library was represented by 50×10^6 independent recombinant clones. Four and seven days after infection, a purified anti-CD4 monoclonal antibody, L77 (available from Becton Dickinson), was added at 5 Φg/mL to prevent syncytia formation. Syncytia formation is thought to be prevented by blocking the interaction between gp120 expressed on the surface of an infected cell and CD4 on the surface of an uninfected cell. […] At 10-12 days after infection, CD4^+, p24^− cell population representing uninfected cells were sorted. Genomic DNA from the CD4^+, p24^− cells was purified and used for PCR amplification of inserts with the vector-derived primers. The amplified mixture was digested with EcoRI and BamHI and cloned back into the retroviral vector. The selection was repeated for additional rounds.
The selection of GSEs from HeLa cell library using productive infection of CEM-ss cells isolated […] additional nucleic acid molecules which have substantial sequence identity with other cellular genes.
The selection of GSEs from a HeLa cell library using productive infection of CEM-ss cells isolated 21 additional nucleic acid molecules which have substantial sequence identity with other cellular genes. […] The complement of SEQ ID NO:25 is represented by SEQ ID NO:26. […] The complement of SEQ ID NO:27 is represented by SEQ ID NO:28. […] The complement of SEQ ID NO:29 is represented by SEQ ID NO:30. […] The complement of SEQ ID NO:31 is represented by SEQ ID NO:32. […] The complement of SEQ ID NO:33 is represented by SEQ ID NO:34. […] The complement of SEQ ID NO:35 is represented by SEQ ID NO:36. […] The complement of SEQ ID NO:37 is represented by SEQ ID NO:38. […] The complement of SEQ ID NO:39 is represented by SEQ ID NO:40. […] The complement of SEQ ID NO:41 is represented by SEQ ID NO:42. […] The complement of SEQ ID NO:43 is represented by SEQ ID NO:44. […] The complement of SEQ ID NO:45 is represented by SEQ ID NO:46. […] The complement of SEQ ID NO:47 is represented by SEQ ID NO:48. […] The complement of SEQ ID NO:49 is represented by SEQ ID NO:50. […] The complement of SEQ ID NO:51 is represented by SEQ ID NO:52. […] The complement of SEQ ID NO:53 is represented by SEQ ID NO:54. […] The complement of SEQ ID NO:55 is represented by SEQ ID NO:56. […] The complement of SEQ ID NO:57 is represented by SEQ ID NO:58. […] The complement of SEQ ID NO:59 is represented by SEQ ID NO:60. […] The complement of SEQ ID NO:61 is represented by SEQ ID NO:62. […] The complement of SEQ ID NO:77 is represented by SEQ ID NO:78. […] The complement of SEQ ID NO:87 is represented by SEQ ID NO:88. […] The complement of SEQ ID NO:99 is represented by SEQ ID NO:100. […] The complement of SEQ ID NO:101 is represented by SEQ ID NO:102. […] The complement of SEQ ID NO:103 is represented by SEQ ID NO:104. […] The complement of SEQ ID NO:105 is represented by SEQ ID NO: 106. […] The complement of SEQ ID NO:107 is represented by SEQ ID NO:108. […] The complement of SEQ ID NO:109 is represented by SEQ ID NO:110. […] The complement of SEQ ID NO:111 is represented by SEQ ID NO:112. […] The complement of SEQ ID NO:113 is represented by SEQ ID NO:114. […] The complement of SEQ ID NO:115 is represented by SEQ ID NO:116. […] The complement of SEQ ID NO:117 is represented by SEQ ID NO:118.
On to “CF-528: GSE, SEQ ID NO:43, sense; GTP binding protein gene (sense AGTGCTTTAACGATGTCACAGCTATCATTTACGTCGCAGCCTGCAGTAGCTACAACATG; chemistry not fully specified; listed as Homo sapiens)”, for which the “HIV-suppressive activity of the GSE and active orientation” value (shortened to “HIV-suppressive activity”) is “interferes with HIV infection in the sense orientation”.
As to “CF-321: GSE, SEQ ID NO:29, sense; rat guanine nucleotide releasing protein gene (sense AGTTCCTTTTACTTTTTAATCTTTCCTTAAAGCACGCCTGTGTTGGGCTAACGA; listed as Homo sapiens)”, the “HIV-suppressive activity” value is given as “interferes with HIV replication in the sense orientation”.
The value for “CF-332: GSE, SEQ ID NO:33, antisense; lymphocyte-specific protein 1 gene (antisense AACACCCATAGTAGGCCTAAAAGCAGCCACCAATTAAGAAAGC; listed as Homo sapiens)” was “interferes with HIV replication as an antisense molecule”.
In the case of “CF-537: GSE, SEQ ID NO:25, sense; human bone morphogenic protein-1 gene (sense GGTCCACCATGGCCCTGCTGCACTCCGGCCGCGTCCTCCCCGGGATCGCCGCCGCCT; chemistry not fully specified; listed as Homo sapiens)”, the “HIV-suppressive activity” value is given as “interferes with the HIV life cycles in the sense orientation”.
Take B1: the “HIV-suppressive activity” value is “suppresses HIV infection as an antisense molecule”.
With B2, the “HIV-suppressive activity” value is “suppresses HIV infection as an antisense molecule”.
Turning to B3, the “HIV-suppressive activity” value is reported as “interferes with HIV replication as an antisense molecule”.
As to B4, the “HIV-suppressive activity” value is “suppresses HIV infection as an antisense molecule”.
B5: the “HIV-suppressive activity” value is on record as “interferes with HIV replication as an antisense molecule”.
On to B6, for which the “HIV-suppressive activity” value is recorded as “suppresses HIV infection as a sense molecule”.
Take B7: the “HIV-suppressive activity” value is given as “suppresses HIV infection as an antisense molecule”.
With B8, the “HIV-suppressive activity” value is on record as “suppresses HIV infection as a sense molecule”.
As for B9, the “HIV-suppressive activity” value is “suppresses HIV infection as a sense molecule”.
In the case of B10, the “HIV-suppressive activity” value is “interferes with HIV replication as an antisense molecule”.
For B11, the “HIV-suppressive activity” value is listed as “suppresses HIV infection as a sense molecule”.
As to B12, the “HIV-suppressive activity” value is “suppresses HIV infection as an antisense molecule”.
For the molecule B13, the “HIV-suppressive activity” value is given as “selected in CEM-ss cells”.
B14: the “HIV-suppressive activity” value is “suppresses HIV infection as a sense molecule”.
